Here are results for 38 sequences from the supplement of paper PMC7877785.

A short description of this series: self-splicing fitness, log relative to wild type (ln ratio); higher = more splicing; Tetrahymena group I intron in knt gene, E. coli kanamycin selection, DiMSum; sequences stand for … in CUCUCU…GGAGGGAAAAGUUAUCAGGCAUGCACCUGGUAGCUAGUCUUUAAACCAAUAGAUUGCAUCGGUUUAAAAGGCAAGACCGUCAAAUUGCGGGAAAGGGGUCAACAGCCGUUCAGUACCAAGUCUCAGGGGAAACUUUGAGAUGGCCUUGCAAAGGGUAUGGUAAUAAGCUGACGGACAUGGUCCUAACCACGCAGCCAAGUCCUAAGUCAACAGAUCUUCUGUUGAUAUGGAUGCAGUUCACAGACUAAAUGUCGGUCGGGGAAGAUGUAUUCUUCUCAUAAGAUAUAGUCGGACCUCUCCUUAAUGGGAGCUAGCGGAUGAAGUGAUGCAACACUGGAGCCGCUGGGAACUAAUUUGUAUGCGAAAGUAUAUUGAUUAGUUUUGGAGUACUCGUGGUCG
Put shortly: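 The eight P1ex-region nucleotides of an intron in the knt kanamycin-resistance gene on pET-22b(+) were all randomised and the library put into E. coli BL21(DE3). Six replicate transformations were grown overnight at 37°C or 30°C on LB agar with or without 25 μg/mL kanamycin, together with 100 μg/mL carbenicillin, 50 μM IPTG and 0.2% rhamnose. Colonies were pooled and amplicon-sequenced on an Illumina HiSeq 2500. Fitness from DiMSum is the error-weighted combination of wild-type-normalised replicate fold changes, kanamycin over none.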

± gives the uncertainty stated by the source.

ACGCAGCAAUAUUACGCUAG: the “self-splicing fitness (ln)” value is -3.42 ± 0.22 (30 °C) and -2.33 ± 0.24 (37 °C).

Regarding UGGAAGCAAUAUUACGCGAU, the “self-splicing fitness (ln)” value is, setting by setting: (30 °C) -2.02 ± 0.14; (37 °C) -2.12 ± 0.25.

For the sequence CGCGAGCAAUAUUACGAGCA, the “self-splicing fitness (ln)” value is -1.27 ± 0.13 (30 °C) and -0.102 ± 0.18 (37 °C).

As to CUGAAGCAAUAUUACGGUAG, the “self-splicing fitness (ln)” value is -0.283 ± 0.054 (30 °C) and -0.509 ± 0.061 (37 °C).

With CGCUAGCAAUAUUACGUAGC, the “self-splicing fitness (ln)” value is -3.14 ± 0.31 (30 °C) and -1.68 ± 0.37 (37 °C).

In the case of GACCAGCAAUAUUACGGACC, the “self-splicing fitness (ln)” value is, setting by setting: (30 °C) -2.21 ± 0.17; (37 °C) -2.38 ± 0.33.

Take CGCCAGCAAUAUUACGCCUC: the “self-splicing fitness (ln)” value runs as follows: (30 °C) -3.25 ± 0.32; (37 °C) -0.661 ± 0.29.

With UGUAAGCAAUAUUACGCAAC, the “self-splicing fitness (ln)” value is -3.15 ± 0.31 (30 °C) and -1.79 ± 0.29 (37 °C).

For the sequence AUUAAGCAAUAUUACGCUGU, the “self-splicing fitness (ln)” value is, setting by setting: (30 °C) -3.23 ± 0.16; (37 °C) -1.97 ± 0.19.

Turning to UGGGAGCAAUAUUACGUGCA, the “self-splicing fitness (ln)” value reads like this: (30 °C) -1.07 ± 0.093; (37 °C) -0.293 ± 0.11.

As for CUAGAGCAAUAUUACGAACA, the “self-splicing fitness (ln)” value (30 °C) is -4.05 ± 0.28 and the “self-splicing fitness (ln)” value (37 °C) was -2.05 ± 0.2.

With CUCAAGCAAUAUUACGCUAA, the “self-splicing fitness (ln)” value (30 °C) is -3.13 ± 0.2 and the “self-splicing fitness (ln)” value (37 °C) is -2.96 ± 0.22.

Take GUAUAGCAAUAUUACGUCAC: the “self-splicing fitness (ln)” value is, setting by setting: (30 °C) -3 ± 0.29; (37 °C) -1.7 ± 0.26.

With CCCCAGCAAUAUUACGAGCG, the “self-splicing fitness (ln)” value reads like this: (30 °C) -4.16 ± 0.24; (37 °C) -2.62 ± 0.23.

Turning to CAUGAGCAAUAUUACGUCCU, the “self-splicing fitness (ln)” value (30 °C) was -4.2 ± 0.32 and the “self-splicing fitness (ln)” value (37 °C) is -1.88 ± 0.2.

Turning to CCCGAGCAAUAUUACGCGAG, the “self-splicing fitness (ln)” value was -5.08 ± 0.41 (30 °C) and -2.46 ± 0.18 (37 °C).

On to UGCCAGCAAUAUUACGCUAC, for which the “self-splicing fitness (ln)” value by setting is: (30 °C) -3.47 ± 0.16; (37 °C) -2.78 ± 0.2.

On to UAGCAGCAAUAUUACGGCCA, for which the “self-splicing fitness (ln)” value by setting is: (30 °C) 0.54 ± 0.1; (37 °C) 0.33 ± 0.16.

In the case of UCAUAGCAAUAUUACGUGUU, the “self-splicing fitness (ln)” value by setting is: (30 °C) -3.81 ± 0.14; (37 °C) -1.57 ± 0.1.

For GCCCAGCAAUAUUACGGGCA, the “self-splicing fitness (ln)” value reads like this: (30 °C) -2.35 ± 0.2; (37 °C) -2.69 ± 0.21.

For the sequence AAGAAGCAAUAUUACGGUAG, the “self-splicing fitness (ln)” value runs as follows: (30 °C) -3.76 ± 0.19; (37 °C) -1.83 ± 0.17.

As for UUAGAGCAAUAUUACGUGAC, the “self-splicing fitness (ln)” value by setting is: (30 °C) -3.13 ± 0.18; (37 °C) -2.64 ± 0.24.

Take UACGAGCAAUAUUACGGGCA: the “self-splicing fitness (ln)” value (30 °C) is -1.77 ± 0.089 and the “self-splicing fitness (ln)” value (37 °C) was -0.925 ± 0.087.

As for GGUAAGCAAUAUUACGACCC, the “self-splicing fitness (ln)” value (30 °C) was -1.6 ± 0.26 and the “self-splicing fitness (ln)” value (37 °C) was -1.75 ± 0.43.

For the sequence CCAUAGCAAUAUUACGGUCC, the “self-splicing fitness (ln)” value is -2.72 ± 0.26 (30 °C) and -1.99 ± 0.42 (37 °C).

On to AGUCAGCAAUAUUACGACCC, for which the “self-splicing fitness (ln)” value reads like this: (30 °C) -0.401 ± 0.19; (37 °C) -0.72 ± 0.29.

Consider GGCCAGCAAUAUUACGGCAC, for which the “self-splicing fitness (ln)” value runs as follows: (30 °C) -1.58 ± 0.15; (37 °C) -1.41 ± 0.19.

Regarding UCGUAGCAAUAUUACGUGAG, the “self-splicing fitness (ln)” value (30 °C) was -3.55 ± 0.19 and the “self-splicing fitness (ln)” value (37 °C) is -1.35 ± 0.15.

Take UUUGAGCAAUAUUACGUGAU: the “self-splicing fitness (ln)” value (30 °C) is -2.95 ± 0.33.

In the case of CCAAAGCAAUAUUACGACAU, the “self-splicing fitness (ln)” value is, setting by setting: (30 °C) -3.658 ± 0.02; (37 °C) -2.82 ± 0.037.

For the sequence GGGAAGCAAUAUUACGGGAG, the “self-splicing fitness (ln)” value (30 °C) is -3.28 ± 0.32 and the “self-splicing fitness (ln)” value (37 °C) is -2.09 ± 0.27.

In the case of CCCAAGCAAUAUUACGCCAC, the “self-splicing fitness (ln)” value was -2.48 ± 0.25 (30 °C) and -1.49 ± 0.22 (37 °C).

In the case of UUGCAGCAAUAUUACGGACA, the “self-splicing fitness (ln)” value is -0.355 ± 0.074 (30 °C) and -0.669 ± 0.091 (37 °C).

With CUGCAGCAAUAUUACGUGUU, the “self-splicing fitness (ln)” value reads like this: (30 °C) -4.86 ± 0.31; (37 °C) -2.28 ± 0.19.

For GCCUAGCAAUAUUACGGCUU, the “self-splicing fitness (ln)” value is -3.8 ± 0.22 (30 °C) and -1.08 ± 0.16 (37 °C).

As for UCGUAGCAAUAUUACGCAUC, the “self-splicing fitness (ln)” value (37 °C) is -2.63 ± 0.36.

With CUGGAGCAAUAUUACGUCUG, the “self-splicing fitness (ln)” value runs as follows: (30 °C) 0.206 ± 0.068; (37 °C) 0.0818 ± 0.099.

For UUGAAGCAAUAUUACGUGAU, the “self-splicing fitness (ln)” value by setting is: (30 °C) -2.29 ± 0.11; (37 °C) -1.3 ± 0.16.
